For orientation: Kd means the free concentration of one partner at which half of the binding sites on the other are occupied at equilibrium, for simple one-to-one binding.

Results on two substances are retold here after article PMC3219723.

One test deals with ASF/SF2 (Homo sapiens) (UniProt Q07955). The note with it: cited from earlier work.
The target of test [1] is Cp183 dimer (HBV core protein, free dimer) (Hepatitis B virus) (UniProt P03147). Put plainly: SEC; 5.3 µM Cp183 dimer alone or mixed with 11.2 µM SRPKΔ in disassembly buffer, dialysed overnight against reassembly buffer (0.25 M NaCl, 10 mM DTT, 20 mM Tris-HCl pH 7.4); Superose 6; fractions by SDS-PAGE. In general terms: Size exclusion chromatography separates by hydrodynamic size, large species first.
Sequence of UniProt P03147 (P03147 whole entry): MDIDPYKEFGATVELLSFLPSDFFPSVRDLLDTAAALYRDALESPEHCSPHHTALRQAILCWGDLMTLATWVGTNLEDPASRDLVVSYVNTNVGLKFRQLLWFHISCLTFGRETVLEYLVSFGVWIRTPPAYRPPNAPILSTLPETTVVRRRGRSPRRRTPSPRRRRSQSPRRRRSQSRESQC

Sequence of UniProt Q07955 (Q07955 2-248): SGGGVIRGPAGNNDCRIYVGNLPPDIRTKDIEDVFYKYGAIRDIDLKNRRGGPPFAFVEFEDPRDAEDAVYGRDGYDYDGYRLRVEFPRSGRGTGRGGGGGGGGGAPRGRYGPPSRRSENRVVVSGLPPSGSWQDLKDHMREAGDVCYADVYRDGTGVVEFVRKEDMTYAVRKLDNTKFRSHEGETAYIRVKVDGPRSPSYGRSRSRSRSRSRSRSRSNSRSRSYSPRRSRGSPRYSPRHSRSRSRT

SRPK1 (from UniProt Q96SB4): the Kd in the test with ASF/SF2 (Homo sapiens) is 0.05 µM.
For the substance “SRPK1ΔN1S1 (truncated Serine Arginine protein kinase 1) (from UniProt Q96SB4 1-655) (enzyme)”, the stoichiometry N (SRPKΔ per Cp183 dimer) in test [1] was greater than 1.
